Results reported in IntAct's records for PubMed 19876371.

B1: Glucose-1-phosphate adenylyltransferase large subunit 1 (Solanum tuberosum (Potato)), Q00081 (parent)
chain: NKIKPGVAYSVITTENDTQTVFVDMPRLERRRANPKDVAAVILGGGEGTKLFPLTSRTATPAVPVGGCYRLIDIPMSNCINSAINKIFVLTQYNSAPLNRHIARTYFGNGVSFGDGFVEVLAATQTPGEAGKKWFQGTADAVRKFIWVFEDAKNKNIENIVVLSGDHLYRMDYMELVQNHIDRNADITLSCAPAEDSRASDFGLVKIDSRGRVVQFAEKPKGFDLKAMQVDTTLVGLSPQDAKKSPYIASMGVYVFKTDVLLKLLKWSYPTSNDFGSEIIPAAIDDYNVQAYIFKDYWEDIGTIKSFYNASLALTQEFPEFQFYDPKTPFYTSPRFLPPTKIDNCKIKDAIISHGCFLRDCSVEHSIVGERSRLDCGVELKDTFMMGADYYQTESEIASLLAEGKVPIGIGENTKIRKCIIDKNAKIGKNVSIINKDGVQEADRPEEGFYIRSGIIIILEKATIRDGTVI
partner: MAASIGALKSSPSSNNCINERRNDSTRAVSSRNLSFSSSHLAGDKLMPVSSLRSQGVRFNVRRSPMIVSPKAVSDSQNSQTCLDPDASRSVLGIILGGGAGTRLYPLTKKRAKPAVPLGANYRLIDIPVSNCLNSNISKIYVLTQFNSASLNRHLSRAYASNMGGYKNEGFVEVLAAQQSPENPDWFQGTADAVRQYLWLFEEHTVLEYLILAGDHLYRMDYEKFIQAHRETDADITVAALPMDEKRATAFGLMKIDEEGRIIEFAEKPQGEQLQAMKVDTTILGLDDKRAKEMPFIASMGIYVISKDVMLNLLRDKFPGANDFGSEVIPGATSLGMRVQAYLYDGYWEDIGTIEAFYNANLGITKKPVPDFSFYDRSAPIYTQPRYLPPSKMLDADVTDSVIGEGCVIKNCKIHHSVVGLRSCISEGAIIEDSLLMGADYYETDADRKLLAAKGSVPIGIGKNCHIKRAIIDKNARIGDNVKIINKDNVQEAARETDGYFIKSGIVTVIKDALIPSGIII

Variants of: B1
Conditions: with glgs_soltu glgs

Effect of a mutation on the interaction, disrupting interaction:
I342A
I347A
R100A
I351A;I352A
P339A
